1 molecule from publication PMC4370478, “Inhibition of Zn(II) Binding Type IA Topoisomerases by Organomercury Compounds and Hg(II)” can be followed below.

The data set has as its target E. coli topoisomerase I (ETOP) (Escherichia coli, UniProt P06612 1-865). The experiment in a line: fluorescence anisotropy; 0.5 mM MgCl2; no inhibitor (Kd fitted, value not in the text held); 50 mM Tris-HCl pH 7.5, 100 mM NaCl, 0.1 mM EDTA, 0.5 mM MgCl2; 10-30 nM oligonucleotide; temperature not stated. Conditions: label: 3' 6-carboxyfluorescein; hairpin, 16 bp stem. A general note: Polarisation of emitted light reports the rotation of a fluorescent probe.

Sequence of E. coli topoisomerase I (ETOP) (P06612 whole entry): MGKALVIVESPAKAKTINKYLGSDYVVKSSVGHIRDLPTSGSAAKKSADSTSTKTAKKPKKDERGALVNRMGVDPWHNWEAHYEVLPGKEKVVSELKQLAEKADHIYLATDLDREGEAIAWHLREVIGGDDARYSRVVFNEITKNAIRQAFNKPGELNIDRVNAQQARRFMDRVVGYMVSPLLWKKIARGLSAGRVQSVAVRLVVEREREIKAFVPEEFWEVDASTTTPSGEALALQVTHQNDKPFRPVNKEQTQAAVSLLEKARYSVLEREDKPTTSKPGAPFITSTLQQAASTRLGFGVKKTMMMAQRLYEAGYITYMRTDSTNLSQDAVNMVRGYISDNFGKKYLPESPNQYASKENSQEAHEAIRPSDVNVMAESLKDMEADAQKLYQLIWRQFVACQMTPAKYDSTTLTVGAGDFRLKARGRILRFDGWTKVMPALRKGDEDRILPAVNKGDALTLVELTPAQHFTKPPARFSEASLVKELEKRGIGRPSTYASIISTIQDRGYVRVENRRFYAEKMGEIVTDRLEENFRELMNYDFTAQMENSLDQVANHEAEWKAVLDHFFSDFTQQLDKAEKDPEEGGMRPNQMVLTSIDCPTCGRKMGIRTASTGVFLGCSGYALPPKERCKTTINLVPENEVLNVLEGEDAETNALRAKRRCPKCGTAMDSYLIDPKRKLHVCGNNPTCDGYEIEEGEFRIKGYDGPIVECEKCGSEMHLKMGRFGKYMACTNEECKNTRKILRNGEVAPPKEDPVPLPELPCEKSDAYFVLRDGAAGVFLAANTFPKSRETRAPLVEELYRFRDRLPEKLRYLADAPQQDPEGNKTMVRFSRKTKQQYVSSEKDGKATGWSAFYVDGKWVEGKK

B1: 59-base stem-loop oligonucleotide (non-cleavable) (structured_DNA)
DNA: GCCCTGAAAGATTATGGAATGGGATTAGGGTAAAGGAAGAGAGCATAATCTTTCAGGGC
B1: the binding result is given as “binds”.
